The target of assay [1] is T1, recombinant human GDF-11 (human, UniProt O95390 299-407).
T1 sequence (looked up): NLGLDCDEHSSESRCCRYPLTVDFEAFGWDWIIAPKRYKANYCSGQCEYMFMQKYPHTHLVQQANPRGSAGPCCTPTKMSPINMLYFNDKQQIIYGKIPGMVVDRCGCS
Put plainly: cell-based or functional assay.

In assay [2] the target is T2, human mature myostatin (dimeric form) (human, UniProt O14793 267-375).
T2 sequence: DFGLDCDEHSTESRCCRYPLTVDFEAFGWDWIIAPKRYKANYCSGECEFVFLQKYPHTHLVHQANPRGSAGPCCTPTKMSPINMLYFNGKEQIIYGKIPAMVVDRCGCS
Description: cell-based or functional assay.

For assay [3], the target named is T2, human mature myostatin (dimeric form). Description: KINEXA, calculated as KD x kon. On the procedure:
(§1) Binding affinity measurements for full-length monoclonal antibodies of the invention are determined using a Sapidyne KINEXA assay. NHS-activated fast-flow sepharose beads (GE Healthcare) are pre-coated with […] and blocked with 10 mg/ml BSA in 1 M Tris-HCl, pH 8.0. Then 2 pM, 4 pM, 40 pM of an antibody of the invention (e.g., 3-74/C1E4) is incubated with various concentration (e.g., 2.4 pM to 10 nM, serial dilutions) of myostatin in running buffer (PBS, 0.005% (v/v) Tween-20 and 1 mg/ml ovalbumin) for 10 hours at room temperature. […] The amount of bead-bound antibody is then quantified by passing a solution of fluorescent (Cy5) labeled goat ant-human Fc antibody (Jackson Immuno Research) diluted 1:4000 in running buffer over the beads. The measured fluorescence signal is proportional to the concentration of free antibody at equilibrium. Each concentration of myostatin is measured in duplicate. […]
(§2) The association rate constant (kₒₙ) for GDF-8 binding is also determined using a Sapidyne KINEXA assay. […] The dissociation rate constant (koff) is calculated using the expression koff=KD×kₒₙ. Full-length monoclonal antibody 3-74/C1E4 (operably linked to an IgG₄ Fc region) was measured using the described assay, the results obtained are listed below in Table 3.

The target is the same in assay [4]. Description: KINEXA kinetic assay, 2 pM antibody mixed with 20 pM GDF-8. As to the method:
as §1, §2

Assay [5] has the same target. Description: KINEXA equilibrium assay, antibody and myostatin in solution, room temperature. As to the method: Binding affinity measurements for full-length monoclonal antibodies of the invention are determined using a Sapidyne KINEXA assay. NHS-activated fast-flow sepharose beads (GE Healthcare) are pre-coated with […] and blocked with 10 mg/ml BSA in 1 M Tris-HCl, pH 8.0. Then 2 pM, 4 pM, 40 pM of an antibody of the invention (e.g., 3-74/C1E4) is incubated with various concentration (e.g., 2.4 pM to 10 nM, serial dilutions) of myostatin in running buffer (PBS, 0.005% (v/v) Tween-20 and 1 mg/ml ovalbumin) for 10 hours at room temperature. To determine the free antibody present at equilibrium, each sample is passed through the myostatin-coated beads. The amount of bead-bound antibody is then quantified by passing a solution of fluorescent (Cy5) labeled goat ant-human Fc antibody (Jackson Immuno Research) diluted 1:4000 in running buffer over the beads. The measured fluorescence signal is proportional to the concentration of free antibody at equilibrium. Each concentration of myostatin is measured in duplicate. The equilibrium dissociation constant (KD) is obtained from non-linear regression of the competition curves using a multiple-curve, one-site homogeneous binding model (KINEXA software).

B1: Fab 3-74/C1E4 (Fab, V domains shown)
VH: EVQLVESGGGLVQPGGSLRLSCAASGLTFSRYPMSWVRQAPGKGLEWVSAITSSGGSTYYSDTVKGRFTISRDNAKNTLYLQMNSLRAEDTAVYYCARLPDYWGQGTLVTVSS
VL: EIVLTQSPGTLSLSPGERATLSCRASSSVSSSYLHWYAAKPGQAPRLLIYSTSNLVAGIPDRFSGSGSGTDFTLTISRLEPEDFAVYYCQHYSGYHFTFGGGTKVEIK
Regarding B1, the “IC50 GDF11 (GDF-11/SBE luciferase reporter assay, 293E cells)” value in assay [1] stood at 4 nM. Besides, the “IC50 GDF8 (myostatin/SBE luciferase reporter assay, 293E cells)” value in assay [2] is 1 nM.

B2: Full-length monoclonal antibody 3-74/C1E4 (operably linked to an IgG4 Fc region) (antibody, V domains shown)
VH: EVQLVESGGGLVQPGGSLRLSCAASGLTFSRYPMSWVRQAPGKGLEWVSAITSSGGSTYYSDTVKGRFTISRDNAKNTLYLQMNSLRAEDTAVYYCARLPDYWGQGTLVTVSS
VL: EIVLTQSPGTLSLSPGERATLSCRASSSVSSSYLHWYAAKPGQAPRLLIYSTSNLVAGIPDRFSGSGSGTDFTLTISRLEPEDFAVYYCQHYSGYHFTFGGGTKVEIK
notes: also called Mab 3-74/C1E4
In general, koff refers to the rate constant with which the complex falls apart. As a reminder, the kon is a measure of how fast the partners come together. Higher therefore signals faster complex formation. The Kd is the constant that tells how readily two partners part at equilibrium. Take B2: the koff in assay [3] is 2.08e-06 s⁻¹. The kon in assay [4] is 1.49e+06 M⁻¹ s⁻¹. In assay [5], binding was put at a Kd of 0.00139 nM.

The values are drawn from patent US20090131638A1 (Eli Lilly, published 2009).
